Laboratory results reported in article PMC3798605, “Independent Pathways Can Transduce the Life-Cycle Differentiation Signal in Trypanosoma brucei” (PLoS Pathogens, 2013).

Molecular target: TbPTP1
Test: SPR
Settings: 2 mM citrate, 25°C, 10 mM HEPES, pH 7.4, 150 mM NaCl, 0.05% P20, 2 mM DTT, 20 mM MgCl2; for kon: parent: 0.0012; for koff: parent: 0.05; for Kd: parent: 42

| Substance | kon | koff | Kd |
| --- | --- | --- | --- |
| TbPIP39 wild type D57A | 1300 M⁻¹ s⁻¹ | 0.04 s⁻¹ | 31 µM |
| TbPIP39 wild type T63A; V64A | 1100 M⁻¹ s⁻¹ | 0.03 s⁻¹ | 30 µM |
| TbPIP39 wild type DD mutant | 1200 M⁻¹ s⁻¹ | 0.05 s⁻¹ | 42 µM |
